# B1: recombinant Qβ phage QβF6 displaying SARS-CoV spike fragment F6 (S425-525) at the C terminus of the A1 minor coat protein (domain or fragment)
# chain: not shown
# notes: also called GF6; QF6
# Biological target: T1, recombinant human angiotensin-converting enzyme 2 (human, UniProt Q9BYF1 18-740)
# T1 construct: also called rhACE2; hACE2
# Assay: phage display biopanning
# Details: both partners purified
# T1 sequence (Q9BYF1 18-740): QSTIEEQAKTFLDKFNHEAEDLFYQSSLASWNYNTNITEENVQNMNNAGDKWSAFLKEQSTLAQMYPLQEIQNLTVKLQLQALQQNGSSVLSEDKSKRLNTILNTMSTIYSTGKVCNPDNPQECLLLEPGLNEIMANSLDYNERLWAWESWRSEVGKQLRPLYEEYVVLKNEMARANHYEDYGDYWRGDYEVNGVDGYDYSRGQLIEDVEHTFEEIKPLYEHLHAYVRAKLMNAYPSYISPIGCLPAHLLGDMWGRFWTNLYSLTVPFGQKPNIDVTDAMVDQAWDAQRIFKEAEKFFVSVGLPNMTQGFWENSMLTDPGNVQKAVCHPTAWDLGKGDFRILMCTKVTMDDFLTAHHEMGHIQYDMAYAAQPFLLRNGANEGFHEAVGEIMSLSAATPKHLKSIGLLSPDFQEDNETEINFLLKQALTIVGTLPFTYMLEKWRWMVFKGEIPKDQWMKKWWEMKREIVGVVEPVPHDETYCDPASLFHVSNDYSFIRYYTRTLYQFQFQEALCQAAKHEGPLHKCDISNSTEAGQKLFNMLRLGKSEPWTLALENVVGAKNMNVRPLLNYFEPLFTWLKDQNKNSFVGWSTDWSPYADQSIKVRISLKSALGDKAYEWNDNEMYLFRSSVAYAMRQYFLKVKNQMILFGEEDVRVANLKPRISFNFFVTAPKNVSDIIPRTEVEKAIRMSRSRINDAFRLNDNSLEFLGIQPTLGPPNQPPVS
binder,measurement,value
B1,binding result,binds
